Measured values as given in patent publication US20210032351A1 (XDCEXPLORER SHANGHAI, published 2021).
Substitutions are numbered along the chain they refer to.

B1: Murine anti-63A10-MMAF (antibody, V domains shown)
VH: QVQLQQSGAELARPGASVKMSCKASGYTFISFTMHWVKQRPGQGLEWIGYINPNSGYTKYNQKFKDKATLTAGQSSSTAYMQLSSLTSEDSAVYYCTRGGGRGFAYWGQGTLVTVSA
VL: DILMTQSPSSMSVSLGDTVTITCHASQDINSNIGWLQQKPGKSFKALIYHGTNLEDGVPSRFSGSGSGADYSLTISSLESEDFADYYCVQYAQFPFTFGSGTKLEIK
B2: Murine anti-43H6-MMAF (antibody, V domains shown)
VH: INAEYAGGPGLVKPSQSLSLTCTVTDYSITSDYAWNWIRQFPGNKLEWMGYISYSGNTNYNPSLKSRISITRDTSKNQFFLQLNSVTTEDTATYYCARLGRGFAYWGQGTLVTVSA
VL: B1 VL with T20S, K42T, A46G, T52R, A69E, Q93H, F96P, S100A, I106L
B3: Murine anti-64F1-MMAF (antibody, V domains shown)
VH: B1 VH with I30S, F32Y, V37A, N54S, G73D, Q74K, A92I, T97A
VL: QIVLTQSPAIMSASPGERVTMTCSASSSVSYMYWYQQKPGSSPRLLIYDTSNLASGVPVRFSGSGSGTSYSLTISRVEAEDAATYYCQQWSSYSLTFGAGTKLELK
B4: Murine anti-64B11-MMAF (antibody, V domains shown)
VH: EVQLQQSGAELVKPGASVKLSCTASGFNIKDYYMHWVKQRTEQGLEWIGRIDPEDGETKYAPKFQGKATITADTSSNTAYLQLSNLPSEDTAVYYCGCRTGGFAYWGQGTLVTVSA
VL: B1 VL with T20S, D28G, K103E
B5: Murine anti-64F1 (antibody, V domains shown)
VH: B1 VH with I30S, F32Y, V37A, N54S, G73D, Q74K, A92I, T97A
VL: B3 VL
notes: murine hybridoma antibody; also called 64F1F8
B6: Murine anti-53D8-MMAF (antibody, V domains shown)
VH: B1 VH with I30T, F32Y, N54S, K63I, G73D, Q74K
VL: B1 VL with T20S, A46G
B7: Murine anti-43H6 (antibody, V domains shown)
VH: B2 VH
VL: B1 VL with T20S, K42T, A46G, T52R, A69E, Q93H, F96P, S100A, I106L
notes: Mouse hybridoma antibody; also called 43H6A1
B8: Murine anti-56F10-MMAF (antibody, V domains shown)
VH: B4 VH with Y32F, N85S, P87T
VL: B3 VL with R18K, M32L, R44S, V77M, S92R, Y93N, S94P, L95W, A99G, L105I
B9: Murine anti-59G3-MMAF (antibody, V domains shown)
VH: DVQLQESGPGLVKPSQSLSLTCSVTGYSITSGYYWHWIRQFPENKLEWMGYISYDGSNIYNPSLKNRISITRDTSKNQFFLKLNSVTTEDTATYYCAINSDYALDYWGQGTSVTVSS
VL: B3 VL with R18K, V77M
B10: Murine anti-7E5-MMAF (antibody, V domains shown)
VH: EIQLQQSGPELVKPGASVKVSCKASGYSFTDYNMYWVKQSHGKSLEWIGYVDPSNGGTNYNQKFKGKATLTVDKSSSTAFMHLNSLTSEDSAVYYCARGFFDYWGQGTTLTVSS
VL: DIVMTQSPSSLTVTAGEKVTMSCKSSQSLLNSGNQKNYLTWYQQKPGQPPKLLIYWASNRESGVPDRFTGSGSGKDFTLTISSVQAEDLAVYYCQNDYRYPVTFGAGTKLELK
B11: Murine anti-75G7-MMAF (antibody, V domains shown)
VH: EVQLQQSGPELVKPGASVKIPCKASGYTFTDYNMDWVKQSHGKSLEWIGDINPNNGDTIYNQKFKGKATLTVDKSSSTAYMELRSLTSEDTAVYYCARGDYDGYYPVYYAMDYWGQGTSVTVSS
VL: ENVLTQSPAIMSASPGEKVTMTCRASSSVSSSYLHWYQQKSGASPKLWIFSTSNLAAGVPARFSGSGSGTSYSLTVSSVEAEDAATYYCQQYSGYPLTFGAGTKLELK
B12: Murine anti-49G12-MMAF (antibody, V domains shown)
VH: EVQLLQSGAELVKPGASVKLSCTASGFNIKDYYMHWVKQRTEQGLEWIGRIDPEDGETKYAPKFQGKATMTADTSSNTAYLQLSSLTSEDTAVYYCASSAYYGRNYWGQGTTLTVSS
VL: QIVLTQSPAIMSASPGEKVTLTCSASSSLSSSYLYWYQQKPGSSPKLWIYSTSNLASGVPARFSGSGSGTSYSLTISSMEAEDAASYFCHQWSSYPYTFGGGTKLEIK
B13: Murine anti-46C4-MMAF (antibody, V domains shown)
VH: EVHLQQSVAELVRPGASVKLSCTASGFNIKNTYMHWVKQRPEQGLEWIGRIDPANGNTKYAPKFQGKATITADTSSNTAYLQLSSLTSEDTAIYYCASDFDYWGQGTTLTVSS
VL: DVLMTQTPLSLPVSLGDQVSISCRSSQSIVNSNGNTHLEWYLQKPGQSPKVLIYKVSKRFSGVPDRFSGSGSGTDFTLKISRVEAEDLGVYYCFQGSHVPYTFGGGTKLEIK

What was measured:
[1] = biological target: T1, human EGFRvIII protein on the surface of U87MG-hEGFRvIII cells (human, UniProt P00533 25-1210); test: cell-based or functional assay
[2] = biological target: T2, human EGFRvIII-hFc protein (human, UniProt P00533 25-645); test: ELISA, coated EGFRvIII-hFc, antibody 0.0001 nM
T2 construct: extracellular domain; made in HEK293 cells, purified on protein A; also called immunogen A; hFc-tagged EGFRvIII protein; not shown: human IgG Fc fragment (hFc) of the pCpC vector
Procedure: (§1) The purified immunogen A (EGFRvIII-hFc) obtained in example 1 (for the preparation method, see step (I) in example 1) is diluted with PBS to a final concentration of 1.0 μg/mL, and then added to a 96-well ELISA plate at 100 μl/well. The plate is sealed with a plastic film and incubated at 4° C. overnight. The next day, the plate is washed twice with a plate washing solution [PBS+0.01% (v/v) Tween20], and added with a blocking solution [PBS+0.01% (v/v) Tween20+1% (w/w) BSA] for blocking 2 hours at room temperature. The blocking solution is discarded, and the purified EGFRvIII antibody obtained in example 2 is added at 100 μl/well. The plate is incubated for 2 hours at 37° C., and then washed 3 times with the plate washing solution [PBS+0.01% (v/v) Tween20]. The plate is added with an HRP (horseradish peroxidase) labeled secondary antibody (purchased from Sigma), incubated at 37° C. for 2 hours, and then washed 3 times with the plate washing solution [PBS+0.01% (v/v) Tween20]. The plate is added with 100 μl of TMB substrate/well, incubated for 30 minutes at room temperature, and then added with 100 μl of stopping solution (1.0N HCl)/well. A450 nm value is read using an ELISA plate reader (SpectraMax 384plus, purchased from Molecular Device), and the results are shown in FIG. 6 and table 10.

[3] = biological target: T2, human EGFRvIII-hFc protein; test: ELISA, coated EGFRvIII-hFc, antibody 0.1 nM
Procedure: as §1

[4] = biological target: T2, human EGFRvIII-hFc protein; test: ELISA, coated EGFRvIII-hFc, antibody 10 nM
Procedure: as §1

[5] = biological target: T2, human EGFRvIII-hFc protein; test: ELISA, coated EGFRvIII-hFc, antibody 1 nM
Procedure: as §1

[6] = biological target: T2, human EGFRvIII-hFc protein; test: ELISA, coated EGFRvIII-hFc, antibody 0.01 nM
Procedure: as §1

[7] = biological target: T2, human EGFRvIII-hFc protein; test: ELISA, coated EGFRvIII-hFc, antibody 100 nM
Procedure: as §1

[8] = biological target: T2, human EGFRvIII-hFc protein; test: ELISA, coated EGFRvIII-hFc, antibody 0.001 nM
Procedure: as §1

[9] = biological target: T1, human EGFRvIII protein on the surface …; test: FACS on U87MG-hEGFRvIII cells
Procedure: The cells are washed twice with the HBSS buffer and are counted, and then the cells are diluted with the HBSS buffer to 2×10⁶ cells/ml, added with 1% goat serum blocking solution, with the percentage being the mass percentage, and incubated on ice for 30 minutes, and then centrifugally washed twice with the HBSS buffer. The collected cells are suspended to 2×10⁶ cells/mL with an FACS buffer (HBSS+1% BSA, with the percentage being the mass percentage), added to a 96-well FACS reaction plate at 100 μL/well, then added with 100 μL/well of the purified EGFRvIII antibody (samples to be tested) obtained in example 2, and incubated on ice for 2 hours. The plate is centrifugally washed twice with the FACS buffer, added with 100 μL/well of a fluorescence (Alexa 488) labeled secondary antibody (purchased from Invitrogen), and then incubated on ice for 1 hour. The plate is centrifugally washed 3 times with the FACS buffer, added with 100 μL/well of a fixing solution [4% (v/v) paraformaldehyde] for suspending the cells, and centrifugally washed twice with the FACS buffer after 10 minutes. The cells are suspended in 100 μL of the FACS buffer, and the results are detected and analyzed by FACS (FACS Calibur, purchased from BD). Data analysis is performed by using the software (CellQuest) to obtain the mean fluorescence intensity (MFI) of the cells. Data is further analyzed by using the software (GraphPad Prism5) to perform data fitting and calculate EC50. […] A431 cells (human epidermal cell cancer cell lines) have a large amount of wild-type EGFR protein expressed on the surface thereof. […] U87MG cells (human glioma cell lines) have a small amount of wild-type EGFR protein expressed on the surface thereof, while HEB cells (human glioma cell lines) have a high level of wild-type EGFR protein expression on the surface thereof.

Binder | IC50, cell killing of U87MG-hEGFRvIII cells (CellTiter-Glo) [1] [nM] | other results
B1 | 0.01 | –
B2 | 0.01 | –
B3 | 0.01 | –
B4 | 0.04 | –
B5 | – | OD450 nm [2]: 0.08; OD450 nm [3]: 1; OD450 nm [4]: 3.76; OD450 nm [5]: 3.51; OD450 nm [6]: 0.16; OD450 nm [7]: 3.73; OD450 nm [8]: 0.09
B6 | 0.04 | –
B7 | – | EC50 [9]: 4 nM
B8 | 0.15 | –
B9 | 0.06 | –
B10 | 0.02 | –
B11 | 0.27 | –
B12 | 0.02 | –
B13 | 0.15 | –
